Laboratory results reported in paper PMC6333409, “Crystal structure of chloramphenicol-metabolizing enzyme EstDL136 from a metagenome” (PLoS ONE, 2019).

System: CC(=O)Oc1ccc([N+](=O)[O-])cc1
Test: purified protein
Type: biochemical, uncultured bacterium pDL136
Settings: 50 mM Tris pH 8.0, 30°C, ~2 nM enzyme, value in parentheses is standard error

Substance	Km	kcat [s⁻¹]	kcat/Km [M⁻¹ s⁻¹]
EstDL136 (wild-type full-length) (uncultured bacterium pDL136; F214A)	0.55 (0.051) mM	641	1.2e+06
EstDL136 (wild-type full-length) (uncultured bacterium pDL136; L206A)	0.40 (0.030) mM	547	1.4e+06
EstDL136 (wild-type full-length) (uncultured bacterium pDL136)	0.14 (0.016) mM	622	4.4e+06
